Reference: US20080145369A1

Key:
[1] = biological target: PCDGF receptor on breast cancer cells (MCF-7; AG-BC1); assay: PCDGF binding to AG-BC1 cells against MCF-7 cells; method not stated
[2] = biological target: PCDGF cell surface receptors on the mink lung epithelial cell line CCL64 (mink); assay: Scatchard analysis of 125I-PCDGF binding to CCL64 cells, high affinity class
[3] = biological target: PCDGF cell surface receptors on the mink lung epithelial cell line CCL64 (mink); assay: Scatchard analysis of 125I-PCDGF binding to CCL64 cells, low affinity class

**Q.** Which fold increase in binding against MCF-7 cells [1] does the source give for “PC-cell-derived growth factor (PCDGF) (ligand)” here?
**A.** 10 fold

**Q.** What about the Kd [2] of the same substance?
**A.** 0.043 nM

**Q.** And the Kd [3]?
**A.** 3.9 nM
